This is an account of results in patent publication US20220267427A1.

For assay [1], the target named is fCK18 in apoptosis-induced HepG2 cell culture supernatant (human) (UniProt P05783). As to the kind of experiment: commercial fCK18 kit ELISA with M30 conjugate. A general note: ELISA stands for enzyme-linked immunosorbent assay.
Assay [2] shares this target. As to the kind of experiment: commercial fCK18 kit ELISA with M30 conjugate; fCK18 0.09 ng/mL.
Assay [3] has the same target. Briefly: commercial fCK18 kit ELISA with M30 conjugate; fCK18 0.28 ng/mL.
Assay [4] shares this target. Briefly: commercial fCK18 kit ELISA with M30 conjugate; fCK18 0.74 ng/mL.
The target is the same in assay [5]. Briefly: commercial fCK18 kit ELISA with M30 conjugate; fCK18 2.23 ng/mL.
The target is the same in assay [6]. As to the kind of experiment: commercial fCK18 kit ELISA with M30 conjugate; fCK18 6.79 ng/mL.
Assay [7] has the same target. Briefly: commercial fCK18 kit ELISA with M30 conjugate; fCK18 20.27 ng/mL.
For assay [8] the target is unchanged. Briefly: commercial fCK18 kit ELISA with M30 conjugate; fCK18 60.73 ng/mL.
Assay [9] has the same target. As to the kind of experiment: commercial fCK18 kit ELISA with M30 conjugate; fCK18 182.28 ng/mL.

Sequence of fCK18 in apoptosis-induced HepG2 cell culture supernatant (human) (P05783 239-397): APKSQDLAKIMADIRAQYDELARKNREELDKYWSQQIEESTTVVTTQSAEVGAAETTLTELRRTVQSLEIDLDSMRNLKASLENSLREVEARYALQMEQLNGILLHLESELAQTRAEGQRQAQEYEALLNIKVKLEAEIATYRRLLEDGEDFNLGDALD

Turning to M30 antibody, the fCK18 concentration detectable (S/N ratio of 2 or more) in assay [1] was over 2.23 ng/mL. Further, the S/N ratio in assay [2] came out at 1.1; in assay [3] it was 1.2; in assay [4], 1.5; in [5] it was 2.4; in assay [6], 5.1; in [7] it was 12.8. Besides, the S/N ratio in [8] turned out to be 37.5; in assay [9], 48.3.
